The values that follow come from patent US20240075137A1 (COMPUGEN, published 2024).

As a reminder, the Kd is the free concentration of one partner at which half of the binding sites on the other are occupied at equilibrium, for simple one-to-one binding. The low end stands for higher affinity, the high end for lower affinity. One may read the IC50 as the midpoint of a concentration-inhibition curve.

For assay [1], the target named is T1, Mouse TIGIT-His (mouse, UniProt P86176).
T1 construct: also called mouse TIGIT monomer (prepared in-house)
T1 sequence (soluble monomer with His tag, looked up): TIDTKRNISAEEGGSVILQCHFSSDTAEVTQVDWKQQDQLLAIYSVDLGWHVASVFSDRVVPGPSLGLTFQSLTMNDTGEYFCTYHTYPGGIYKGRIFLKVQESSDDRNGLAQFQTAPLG
Kind of assay: SPR (ProteOn), Mouse TIGIT-His.

Assay [2] concerns the target T2, human TIGIT on cells (human, UniProt Q495A1 22-141).
T2 construct: also called Expi293 human TIGIT over-expressing cells
T2 sequence: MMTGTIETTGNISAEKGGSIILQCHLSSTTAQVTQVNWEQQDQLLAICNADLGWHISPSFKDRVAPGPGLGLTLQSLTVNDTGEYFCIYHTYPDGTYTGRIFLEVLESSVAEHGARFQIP
Kind of assay: FACS titration of AF647-labelled mAb on human effector memory CD8+ T cells, Donor 322.

The target of assay [3] is T2, human TIGIT on cells. Kind of assay: FACS blocking of human PVR-m2aFc binding to human TIGIT OE Expi293 cells; binding site concentration; n=1.
Assay [4] has as its target T2, human TIGIT on cells. Kind of assay: FACS blocking of human PVR-m2aFc binding to human TIGIT OE Expi293 cells; binding site concentration; n=2.
Assay [5] deals with T3, human TIGIT ECD with C-terminal polyhistidine tag (human, UniProt Q495A1 22-141).
T3 construct: in-house or Sino Biological; also called hTIGIT-HIS; human TIGIT-HIS
T3 sequence: T2 sequence
Kind of assay: SPR (ProteOn), Human TIGIT-His.

Assay [6] addresses T4, cyno TIGIT on cells (cynomolgus macaque).
T4 construct: whole, on cells; also called Expi293 cyno TIGIT over-expressing cells
Kind of assay: FACS titration on cyno TIGIT OE Expi293 cells, binding site concentration; ± 95% CI; 'Fit: Good/Excellent'.
Method: AF647-labeled goat anti-human F(ab′) (Jackson Immunoresearch) was added to the cells to detect binding of anti-TIGIT antibodies. The gMFI of the anti-TIGIT antibodies bound to the cyno TIGIT over-expressing Expi293 cells (black line), and the parental Expi293 cells (grey line) are shown.

The target in assay [7] is T2, human TIGIT on cells. Kind of assay: FACS titration on human TIGIT OE Expi293 cells, binding site concentration; ± 95% CI; 'Fit: Excellent'.
Method: AF647-labeled goat anti-human F(ab′) (Jackson Immunoresearch) was added to the cells to detect binding of anti-TIGIT antibodies.
For the next assay, the target named is T5, Cyno TIGIT-His.
T5 construct: also called cyno TIGIT monomer (prepared in-house); C-terminal HIS-tagged cyno TIGIT ECD recombinant protein
T5 sequence (ECD with C-terminal His tag, as listed by the source): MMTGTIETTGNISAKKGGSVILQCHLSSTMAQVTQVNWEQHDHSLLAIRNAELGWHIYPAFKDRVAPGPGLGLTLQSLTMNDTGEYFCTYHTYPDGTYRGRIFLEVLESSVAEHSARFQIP
Kind of assay: SPR (ProteOn), Cyno TIGIT-His.

For assay [8], the target named is T2, human TIGIT on cells. Kind of assay: FACS titration of AF647-labelled mAb on human effector memory CD8+ T cells, Donor 334.
The target in assay [9] is T2, human TIGIT on cells. Kind of assay: FACS titration of AF647-labelled mAb on human effector memory CD8+ T cells, Donor 321.
Assay [10] deals with T3, human TIGIT ECD with C-terminal …. Kind of assay: KinExA equilibrium, His-tagged human TIGIT, n = 1. (In general: A kinetic exclusion assay measures how much of one partner remains free in solution.)
Method: KinExA equilibrium experiments were performed using a KinExA 3200 instrument (Sapidyne Instruments, Boise, ID, USA) at 22° C. Recombinant His-tagged human TIGIT was obtained from Sino Biologicals (Beijing, China) and reconstituted into 1×PBS. All antigen and antibody samples for KinExA analyses were prepared in degassed PBST buffer (PBS with 0.05% tween 20) with 100 ug/mL filtered BSA and 0.02% sodium azide. […] For each KinExA experiment, ˜20 lag of human TIGIT was diluted into 1 mL of 50 mM sodium carbonate, pH 9.2 which was added directly to 50 mg of azlactone beads (Ultralink Support, Thermo Scientific, Rockford, IL, USA) and rocked overnight at 4° C. After rocking, the beads were rinsed once with 1 M Tris buffer, pH 8.5, containing 10 mg/mL BSA and rocked for one hour at room temperature in the same buffer. Coupled beads were added to the bead reservoir in the KinExA instrument and diluted to ˜30 mL with 1×HBS-N (0.01 M Hepes, 0.15M NaCl, GE Healthcare) containing 0.02% sodium azide which was also the running buffer for the KinExA instrument. All antigen-coupled beads were used immediately after preparation.
The volume flowed through the bead pack for each equilibrated sample for all experiments ranged from 4 mL to 11 mL at a flow rate of 0.25 mL/min.
For assay [11], the target named is T6, human PVRIG on cells (human, UniProt Q6DKI7 1-326).
T6 construct: whole, on cells; over-expressed on HEK cells or endogenous on Jurkat and CD8 T cells; also called hPVRIG; HEK hPVRIG cells
T6 sequence (looked up): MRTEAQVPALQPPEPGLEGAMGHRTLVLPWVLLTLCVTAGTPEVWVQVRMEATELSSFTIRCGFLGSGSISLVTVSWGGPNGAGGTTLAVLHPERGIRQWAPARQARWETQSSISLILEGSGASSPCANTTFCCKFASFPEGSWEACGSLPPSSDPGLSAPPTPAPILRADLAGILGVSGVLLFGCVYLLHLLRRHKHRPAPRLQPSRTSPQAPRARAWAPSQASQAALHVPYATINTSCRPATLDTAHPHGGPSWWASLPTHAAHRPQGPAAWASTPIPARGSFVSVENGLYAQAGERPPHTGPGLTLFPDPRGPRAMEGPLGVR
Kind of assay: FACS on HEK hPVRIG cells; column head 'Kd', unit nM from legend paragraph 75.

In assay [12] the target is T6, human PVRIG on cells. Kind of assay: FACS on Jurkat cells; column head 'Kd', unit nM from legend paragraph 75.
The target in assay [13] is T3, human TIGIT ECD with C-terminal …. Kind of assay: affinity maturation screen of fabs, SPR on hTIGIT-HIS.
Assay [14] has as its target T2, human TIGIT on cells. Kind of assay: flow cytometry of fab; MFI on human TIGIT over-expressing Expi293 / MFI on parental Expi293. For orientation: A flow cytometer gives signals particle by particle.
Assay [15] concerns the target T4, cyno TIGIT on cells. Kind of assay: flow cytometry of fab; MFI on cyno TIGIT over-expressing Expi293 / MFI on parental Expi293.
In assay [16] the target is T4, cyno TIGIT on cells. Kind of assay: FACS titration of AF647-labelled mAb on cyno effector memory CD8+ T cells, Cyno Donor 3; isotype gMFI subtracted.
Assay [17] concerns the target T4, cyno TIGIT on cells. Kind of assay: FACS titration of AF647-labelled mAb on cyno effector memory CD8+ T cells, Cyno Donor 1; isotype gMFI subtracted.
The target in assay [18] is T4, cyno TIGIT on cells. Kind of assay: FACS KD on Expi293 cyno TIGIT over-expressing cells; ± 95% CI of the fit.
For assay [19], the target named is T2, human TIGIT on cells. Kind of assay: FACS KD on Expi293 human TIGIT over-expressing cells; ± 95% CI of the fit.
Assay [20] addresses T3, human TIGIT ECD with C-terminal …. Kind of assay: SPR (ProteOn), mAb captured, human TIGIT injected.
Method: (§1) All experiments were performed using a ProteOn XPR 36 instrument at 22° C. First, high density capture surfaces were prepared with goat anti human Fc polyclonal antibody (Thermo #H10500) and rabbit anti mouse antibodies (GE Healthcare #BR100838), respectively, immobilized over all vertical capture lanes and horizontal interspots on separate GLC chips using standard amine coupling. Typical immobilization levels for the anti-human capture pAb and the anti-mouse capture antibody for each GLC chip were around 5000 RU. Human TIGIT was obtained from Sino Biologicals while mouse TIGIT monomer and cyno TIGIT monomer were prepared in-house.
(§2) Each mAb was diluted to ˜0.5 μg/mL in running buffer which was 1×PBST with filtered BSA added to a final concentration of 100 μg/mL. For each “single-shot kinetics” cycle on the ProteOn instrument, a different mAb was captured over one of the six unique vertical capture lanes for approximately 1.5-2.5 minutes. After switching the buffer flow of the ProteOn to the horizontal direction, capture surfaces were stabilized for approximately 15-20 minutes. […] An identical buffer injection preceded each series of injected antigen for double-referencing. […] The sensorgrams of TIGIT antigen injected over captured mAbs were processed using a ProteOn version of Scrubber and were fit to a 1:1 kinetic binding model including a term for mass transport.
For assay [21], the target named is T2, human TIGIT on cells. Kind of assay: FACS blocking: Expi293 human TIGIT cells pre-incubated with mAb, then human PVR-m2aFc; lower gMFI = more blocking.
Assay [22] deals with T1, Mouse TIGIT-His. Kind of assay: SPR (ProteOn), mAb captured, mouse TIGIT monomer injected.
Method: as §1, §2

Positions count from the first letter of the chain named. Names may count otherwise.

B1: CHA.9.547.7.H4(S241P) (antibody, human IgG4 S228P, kappa, V domains shown)
VH: EVQLVESGGGLVQPGGSLRLSCAASGFTFSSYIMSWVRQAPGKGLEWVATISGGGTNTYYADSVKGRFTISRDNSKNTLYLQMNSLRAEDTAVYYCAKWLLSYYAMDYWGQGTLVTVSS
VL: DIQMTQSPSSLSASVGDRVTITCRASQNINVWLTWYQQKPGKAPKLLIYKASKSHTGVPSRFSGSGSGTDFTLTISSLQPEDFATYYCQQGQSYPYTFGQGTKLEIKR
notes: humanized hybridoma anti-TIGIT antibody, human IgG4
On to B1, for which the binding result in the assay with Mouse TIGIT-His [1] was “no binding (tested: not printed)”. Besides, the Kd with human TIGIT on cells [2] came out at 2.1 nM; in [5], 0.035 nM; with cyno TIGIT on cells [6], 1.54 nM; with human TIGIT on cells [7] it was 0.82 nM; in the assay with Cyno TIGIT-His, 0.456 nM; in the assay with human TIGIT on cells [8], 1.8 nM. The same molecule had a Kd with human TIGIT on cells [9] of 1.8 nM. Moreover, the values for the IC50 with human TIGIT on cells [3] and with human TIGIT on cells [4] were 0.21 nM and 0.15 nM, respectively.

B2: CHA.9.547.13.H4(S241P) (antibody, human IgG4, V domains shown)
VH: B1 VH
VL: DIQMTQSPSSLSASVGDRITITCRASQNINVWLSWYQQKPGKAPKLLIYKASKSHTGVPSRFSGSGSGTDFTLTISSLQPEDFATYYCQQGQSYPYTFGQGTKLEIK
notes: humanized hybridoma antibody, human IgG4 (S241P)
Turning to B2, the Kd with human TIGIT on cells [2] was 1.9 nM; in the assay with cyno TIGIT on cells [6], 1.67 nM; with human TIGIT on cells [7], 0.71 nM; in [10] it was 0.0188 nM; with human TIGIT on cells [8], 1.2 nM; with human TIGIT on cells [9], 2 nM. The IC50 in the assay with human TIGIT on cells [3] came to 0.26 nM; in the assay with human TIGIT on cells [4] it was 0.21 nM.

B3: CPA.7.021 (antibody, V domains shown)
VH: EVQLVESGGGVVKPGGSLRLSCAASGFTFGTSSMNWVRQAPGKGLEWVAVISFDGTEIHYADSVKGRFTISRDNSKSTVFLQMNSLRPDDTALYYCAKGSGNIYFYSGMDVWGQGTTVTVSS
VL: DIQMTQSPSTLSASVGDRVTITCRAGQSISGWLAWFQQKPGKAPNLLIYETSTLESGVPSRFSGSGSGTEYTLTISSLQPDDFATYYCQQYYSYPLTFGQGTKVEIKR
Consider B3, for which the Kd came to 2.94 nM in the assay with human PVRIG on cells [11] and 3.18 nM with human PVRIG on cells [12].

B4: CPA.9.083 (fab) (Fab, V domains shown)
VH: EVQLVETGGGLIQPGRSLRLSCAASGFTFSSYAMHWVRQAPGKGLEWVAVISYDGTPVYYADSVKGRFTISRDNSKNTLYLQMNSLRAEDTAVYYCARDPLPLHYYGMDVWGQGTTVTVSS
VL: QSALTQPRSASGNPGQRVTISCSGSSSNMGRRPVNWYQQIPGTAPKLLIYSQNQRPSGVPDRFSGSQSGTSASLTISGLQSEDEAEYFCAVWDGDRRSLQLGGGTQLAVLG
notes: variant of CPA.9.027 screened as fab
On to B4, for which, in assay [13], the “fold improvement in binding over CPA.9.027” value (shortened to “fold improvement in binding”) was not below 25 fold. Further, the “MFIr (OE/Par) hTIGIT” value with human TIGIT on cells [14] was determined as 170. In addition, the “MFIr (OE/Par) cTIGIT” value in the assay with cyno TIGIT on cells [15] is 97.

B5: CPA.9.083.H4(S241P) (antibody, human IgG4, V domains shown)
VH: B4 VH
VL: B4 VL
Turning to B5, the Kd is 0.434 nM with Mouse TIGIT-His [1]; 0.12 nM with human TIGIT on cells [2]; 0.0017 nM in assay [5]; 0.49 nM with cyno TIGIT on cells [6]; 0.39 nM with human TIGIT on cells [7]; 0.88 nM with cyno TIGIT on cells [16]. Moreover, the equilibrium dissociation constant (Kd) with cyno TIGIT on cells [17] stood at 0.82 nM; in assay [10], 0.000694 nM; with human TIGIT on cells [8], 0.13 nM; in the assay with human TIGIT on cells [9], 0.13 nM. Also, the IC50 with human TIGIT on cells [3] was 0.47 nM; with human TIGIT on cells [4] it was 0.22 nM. Further, in the assay with Cyno TIGIT-His, the binding result is “binds”.

B6: CPA.9.027 hIgG4 (antibody, V domains shown)
VH: B4 VH with T56S, P57N, V58K
VL: B4 VL with G94D, D95S, R96L, R97S
notes: phage-derived anti-TIGIT, human IgG4; also called CPA.9.027-H4
Turning to B6, the Kd in the assay with cyno TIGIT on cells [18] came out at 2.25 nM; with human TIGIT on cells [19], 0.17 nM; in assay [20], 0.13 nM; with Mouse TIGIT-His [22], 80 nM. In addition, the “gMFI of bound PVR-m2aFc at 266 pM mAb” value with human TIGIT on cells [21] is 529. Further, the “gMFI of bound PVR-m2aFc at 1.3 nM mAb” value with human TIGIT on cells [21] amounted to 253. Further, the “gMFI of bound PVR-m2aFc at 6.7 nM mAb” value with human TIGIT on cells [21] turned out to be 208.

B7: CPA.9.089 (fab) (Fab, V domains shown)
VH: B4 VH with G55R
VL: QSALTQPRSASGNPGQRVTISCSGSSSNMGRRPVNWYQQIPGTAPKLLIYSQNQRPSGVPDRFSGSQSGTSASLTISGLQSEDEAEYFCATWDDSLPRLNFGGGTKLAVL
notes: as for B4
As for B7, the “fold improvement in binding” value in [13] was not below 25 fold. The “MFIr (OE/Par) hTIGIT” value with human TIGIT on cells [14] amounted to 110. Moreover, the “MFIr (OE/Par) cTIGIT” value with cyno TIGIT on cells [15] turned out to be 52.

B8: CPA.9.086 (fab) (Fab, V domains shown)
VH: B4 VH with D54A, T56E, P57V, V58K
VL: B4 VL with G94D, D95I, R96G, S98V
notes: as for B4
Regarding B8, in assay [13], the “fold improvement in binding” value was not below 25 fold. Also, the “MFIr (OE/Par) hTIGIT” value with human TIGIT on cells [14] stood at 36. Moreover, the “MFIr (OE/Par) cTIGIT” value with cyno TIGIT on cells [15] was 34.

B9: CPA.9.093 (fab) (Fab, V domains shown)
VH: B4 VH with D54E, T56D, P57R, V58K
VL: B7 VL with L96T, R98H, L99G, N100V
notes: as for B4
Turning to B9, in assay [13], the “fold improvement in binding” value is not below 25 fold. In addition, in the assay with human TIGIT on cells [14], the “MFIr (OE/Par) hTIGIT” value was determined as 80. Further, the “MFIr (OE/Par) cTIGIT” value with cyno TIGIT on cells [15] turned out to be 60.
